Tests used:
[1] = target: T1, intercellular cell adhesion molecule-1 (ICAM-1) on the surface of human cells (human, UniProt P05362 28-532); test: FACS of bone marrow cells, patient 2
T1 construct: whole, on cells; Endogenous antigen; also called CD54

[2] = target: T1, intercellular cell adhesion molecule-1 …; test: FACS of bone marrow cells, patient 5
[3] = target: T1, intercellular cell adhesion molecule-1 …; test: FACS of bone marrow cells, patient 14
[4] = target: T1, intercellular cell adhesion molecule-1 …; test: FACS of bone marrow cells, patient 1
[5] = target: T1, intercellular cell adhesion molecule-1 …; test: FACS of bone marrow cells, patient 7
[6] = target: T1, intercellular cell adhesion molecule-1 …; test: FACS of bone marrow cells, patient 17
[7] = target: T1, intercellular cell adhesion molecule-1 …; test: FACS of bone marrow cells, patient 16
[8] = target: T1, intercellular cell adhesion molecule-1 …; test: FACS of bone marrow cells, patient 20
[9] = target: T1, intercellular cell adhesion molecule-1 …; test: FACS of bone marrow cells, patient 19:3
[10] = target: T1, intercellular cell adhesion molecule-1 …; test: FACS of bone marrow cells, patient 19:1
[11] = target: T1, intercellular cell adhesion molecule-1 …; test: FACS of bone marrow cells, patient 19:2
[12] = target: T1, intercellular cell adhesion molecule-1 …; test: flow cytometry on myeloma cells of one patient, relapse versus diagnosis
[13] = target: T1, intercellular cell adhesion molecule-1 …; test: FACS of tumor cells incubated with serially diluted AF647-BI-505 after FcγR pre-block with human IgG (receptor occupancy)
Procedure: The experiment was repeated three times and mean MFI values were calculated and plotted as a function of antibody concentration. […] The curve was fitted using a five-parameter log-log curve and XLfit software. […] Cells received treatment in triplicate and the experiment was repeated three to five times. […] In vitro PCD and in vivo anti-tumor activity were plotted as a function of receptor occupancy using curve fitting equations and data generated and described above.

[14] = target: T1, intercellular cell adhesion molecule-1 …; test: flow cytometry on ARH-77 cells, % of maximal cell ICAM-1 binding
[15] = target: T1, intercellular cell adhesion molecule-1 …; test: FACS of bone marrow cells, patient 21
[16] = target: T1, intercellular cell adhesion molecule-1 …; test: saturation binding of radioiodinated IgG to Ramos cells, unlabelled IgG subtracted
Procedure: (§1) Specific binding was determined by subtracting binding in the presence of unlabeled competing protein from total binding.
(§2) Analysis was performed in triplicates.
(§3) The specific binding of [¹²⁵I]IgG to the cell surface was calculated by subtracting non-specific binding (binding in the presence of excess unlabelled IgG) from the total binding.

[17] = target: T1, intercellular cell adhesion molecule-1 …; test: FACS of bone marrow cells, patient 8
[18] = target: T1, intercellular cell adhesion molecule-1 …; test: flow cytometry on patient bone marrow cells
[19] = target: T1, intercellular cell adhesion molecule-1 …; test: FACS of bone marrow cells, patient 22
[20] = target: T1, intercellular cell adhesion molecule-1 …; test: FACS of bone marrow cells, patient 9
[21] = target: T1, intercellular cell adhesion molecule-1 …; test: FACS of bone marrow cells, patient 6
[22] = target: T1, intercellular cell adhesion molecule-1 …; test: 125I-IgG saturation binding, Rosenthal-Scatchard plot (legend of FIG. 5; Ramos cells in the panels, 'Raji cells' at the end of the sentence); legend of FIG. 5; Ramos cells (right panels, IgG B11), though the sentence ends '(Raji cells)'
Procedure: as §2
(§4) Antibody affinity constants (Kd values) and epitope numbers per cell were determined from Scatchard plot analysis according to Rosenthal et al. (Anal. Biochem. (1967) 20:525-532); Bylund and Yamamura (Methods in Neurotransmitter Analysed, New York: Raven Press Ltd., 1990); and Marquardt (J. Soc. Indust. Appl. Math. (1963) 11:431-441), as previously described (Brix et al., J. Clin. Invest. (1998) 102:283-293).
as §3

[23] = target: T1, intercellular cell adhesion molecule-1 …; test: FACS of bone marrow cells, patient 15
[24] = target: T1, intercellular cell adhesion molecule-1 …; test: FACS of bone marrow cells, patient 4
[25] = target: T1, intercellular cell adhesion molecule-1 …; test: FACS of bone marrow cells, patient 13
ICAM-3 (recombinant) = target: T2, ICAM-3 (recombinant) (UniProt P32942 30-485, limits assumed); test: dose-dependent binding to recombinant protein (FIG. 12C b)
T2 sequence (looked up): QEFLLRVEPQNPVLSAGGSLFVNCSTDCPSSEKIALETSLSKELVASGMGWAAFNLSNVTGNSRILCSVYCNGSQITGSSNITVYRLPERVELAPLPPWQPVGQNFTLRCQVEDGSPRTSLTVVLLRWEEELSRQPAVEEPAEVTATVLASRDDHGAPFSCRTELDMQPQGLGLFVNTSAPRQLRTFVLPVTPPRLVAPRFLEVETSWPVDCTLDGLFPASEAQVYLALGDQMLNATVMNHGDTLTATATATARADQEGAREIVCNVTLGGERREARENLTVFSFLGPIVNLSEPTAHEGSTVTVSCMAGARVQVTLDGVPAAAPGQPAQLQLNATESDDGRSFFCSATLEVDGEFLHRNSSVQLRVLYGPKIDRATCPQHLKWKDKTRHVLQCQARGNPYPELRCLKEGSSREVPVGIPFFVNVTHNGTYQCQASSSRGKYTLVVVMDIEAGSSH

ICAM-2 (recombinant) = target: T3, ICAM-2 (recombinant) (UniProt P13598 25-223, limits assumed); test: as above
T3 sequence (looked up): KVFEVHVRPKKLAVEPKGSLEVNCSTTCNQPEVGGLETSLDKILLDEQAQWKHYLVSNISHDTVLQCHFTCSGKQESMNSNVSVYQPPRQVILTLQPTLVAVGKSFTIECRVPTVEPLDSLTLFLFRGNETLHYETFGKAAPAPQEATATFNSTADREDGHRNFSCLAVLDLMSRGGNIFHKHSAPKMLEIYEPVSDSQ

[26] = target: T1, intercellular cell adhesion molecule-1 …; test: FACS of bone marrow cells, patient 11
[27] = target: T1, intercellular cell adhesion molecule-1 …; test: FACS of bone marrow cells, patient 10
[28] = target: T1, intercellular cell adhesion molecule-1 …; test: 125I-IgG saturation binding on Ramos cells at 4° C., Rosenthal-Scatchard plot
Procedure: as §1, §4, §3

recombinant ICAM-1 = target: T4, recombinant ICAM-1 (UniProt P05362 28-480); test: ELISA on recombinant ICAM-1, luminescence
T4 construct: also called recombinant ICAM-1 protein

[29] = target: T1, intercellular cell adhesion molecule-1 …; test: FACS of bone marrow cells, patient 12
[30] = target: T1, intercellular cell adhesion molecule-1 …; test: FACS of bone marrow cells, patient 18
[31] = target: T1, intercellular cell adhesion molecule-1 …; test: flow cytometry, AF647 Zenon-labelled IgG

T1 sequence (P05362 28-532): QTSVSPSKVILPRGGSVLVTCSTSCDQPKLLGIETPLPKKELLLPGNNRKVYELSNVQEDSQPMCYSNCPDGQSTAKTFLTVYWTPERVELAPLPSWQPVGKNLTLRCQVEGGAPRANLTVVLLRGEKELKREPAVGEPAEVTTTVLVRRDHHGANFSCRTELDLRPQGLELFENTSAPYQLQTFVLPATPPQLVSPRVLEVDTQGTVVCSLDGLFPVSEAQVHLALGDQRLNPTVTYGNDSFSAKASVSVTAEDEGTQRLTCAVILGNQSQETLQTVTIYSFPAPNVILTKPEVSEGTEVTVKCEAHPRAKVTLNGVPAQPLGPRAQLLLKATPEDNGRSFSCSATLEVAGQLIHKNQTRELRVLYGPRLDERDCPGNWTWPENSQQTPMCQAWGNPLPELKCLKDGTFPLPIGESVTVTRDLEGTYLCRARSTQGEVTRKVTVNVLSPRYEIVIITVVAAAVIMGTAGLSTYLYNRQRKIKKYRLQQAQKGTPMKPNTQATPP
T4 sequence (P05362 28-480 limits assumed): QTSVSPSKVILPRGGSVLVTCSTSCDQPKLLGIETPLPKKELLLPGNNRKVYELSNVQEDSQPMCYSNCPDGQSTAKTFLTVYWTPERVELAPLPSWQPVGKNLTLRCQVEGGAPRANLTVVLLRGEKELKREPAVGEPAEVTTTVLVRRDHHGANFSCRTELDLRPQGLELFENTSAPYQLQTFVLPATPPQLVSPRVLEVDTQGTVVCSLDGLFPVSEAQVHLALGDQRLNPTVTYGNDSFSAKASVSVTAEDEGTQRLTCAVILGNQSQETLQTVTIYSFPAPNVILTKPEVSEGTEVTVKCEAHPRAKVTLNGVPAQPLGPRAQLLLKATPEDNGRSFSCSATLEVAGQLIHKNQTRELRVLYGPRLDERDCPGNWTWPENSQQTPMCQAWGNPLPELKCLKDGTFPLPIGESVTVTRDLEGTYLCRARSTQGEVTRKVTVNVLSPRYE

B1: B11 IgG1 (BI-505), fully human anti-ICAM-1 antibody (antibody, V domains shown)
VH: EVQLLESGGGLVQPGGSLRLSCAASGFTFSNAWMSWVRQAPGKGLEWVAFIWYDGSNKYYADSVKGRFTISRDNSKNTLYLQMNSLRAEDTAVYYCARYSGWYFDYWGQGTLVTVSS
VL: QSVLTQPPSASGTPGQRVTISCTGSSSNIGAGYDVHWYQQLPGTAPKLLIYDNNNRPSGVPDRFSGSKSGTSASLAISGLRSEDEADYYCQSYDSSLSAWLFGGGTKLTVL
notes: That 6 is VH and 8 is VL follows only from the order 'VH and VL'; also called IgG B11
In the case of B1, the “fold increase of BI-505 epitope on MM cells compared to normal B cells” value (from here on “fold increase of BI-505 epitope”) [1] is reported as 8 fold, the “fold increase of BI-505 epitope” value [2] is reported as 9 fold and the “fold increase of BI-505 epitope” value [3] is reported as 5 fold. The “fold increase of BI-505 epitope” value [4] was 55 fold, the “fold increase of BI-505 epitope” value [5] was 45 fold and the “fold increase of BI-505 epitope” value [6] was 11 fold. The “fold increase of BI-505 epitope” value [7] was 3 fold, the “fold increase of BI-505 epitope” value [8] was 27 fold and the “fold increase of BI-505 epitope” value [9] was 4 fold. For the same binder, the “fold increase of BI-505 epitope” value [10] was 10 fold, the “fold increase of BI-505 epitope” value [11] was 6 fold and the “fold expression of the epitope after first relapse” value [12] was 2 fold. The “EC50 (read off the curve)” value [13] was about 0.4 µg/mL, the “EC50 (read off the curve)” value [14] was about 0.05 µg/mL and the “fold increase of BI-505 epitope” value [15] was 4 fold. For the same binder, the “EC50 (read off the curve)” value [16] was about 0.3 nM, the “fold increase of BI-505 epitope” value [17] was 12 fold and the “fold expression of the epitope, myeloma cells versus normal B cells” value [18] was 10 fold. The “fold increase of BI-505 epitope” value [19] was 6 fold, the “fold increase of BI-505 epitope” value [20] was 18 fold and the “fold increase of BI-505 epitope” value [21] was 9 fold. The Kd [22] was about 0.3 nM, the “fold increase of BI-505 epitope” value [23] was 27 fold and the “fold increase of BI-505 epitope” value [24] was 9 fold. For the same binder, the “fold increase of BI-505 epitope” value [25] was 47 fold, the binding result (ICAM-3 (recombinant)) was “no binding” and the binding result (ICAM-2 (recombinant)) was “no binding”. The “fold increase of BI-505 epitope” value [26] was 10 fold, the “fold increase of BI-505 epitope” value [27] was 4 fold and the Kd [28] was about 0.2 nM. For the same binder, the “EC50 (read off the curve)” value (recombinant ICAM-1) was about 0.3 nM, the “fold increase of BI-505 epitope” value [29] was 16 fold and the “fold increase of BI-505 epitope” value [30] was 8 fold. The “fold binding, Ramos versus NK cells” value [31] was 23 fold, the “fold binding, Ramos versus monocyte cells” value [31] was 3.7 fold and the “fold binding, Ramos versus peripheral blood B lymphocytes” value [31] was 8.3 fold.

B2: BI-505 IgG1 N297Q (antibody, V domains shown)
VH: B1 VH
VL: QSVLTQPPSASGTPGQRVTISCTGSSSNIGAGYDVHWYQQLPGTAPKLLIYDNNNRPSGVPDRFSGSKSGTSASLAISGLRSEDEADYYCQSYDSSLSAWLFGGGTKLTVLG
notes: also called Fc-mut; BI-505N297Q
In the case of B2, the “EC50 (read off the curve)” value [14] is reported as about 0.05 µg/mL and the “EC50 (read off the curve)” value (recombinant ICAM-1) is reported as about 0.2 nM.

B3: BI-505 IgG4 (antibody, V domains shown)
VH: B1 VH
VL: B2 VL
With B3 the “EC50 (read off the curve)” value [14] was about 0.05 µg/mL and the “EC50 (read off the curve)” value (recombinant ICAM-1) was about 0.2 nM.
